Test results taken from the supplement of paper PMC9170038.

Legend:
[1] = system: MS2 coat protein; assay: apparent KD of MS2 coat protein, switch ON state; designed switch direction (-1 OFF switch, 1 ON switch): 1; higher = weaker reporter binding; conditions: FMN input: 0 or 200 uM; Eterna round: R93 (includes R88 designs)
Procedure, shortened: (§1)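 Designed RNA switches, transcribed on-chip from Illumina sequencing clusters, were titrated with SNAP-549-labelled MS2 coat protein from 0.7 or 1.5 nM to 3 µM in twofold steps. The solution was 100 mM Tris-HCl pH 7.5, 80 mM KCl, 4 mM MgCl2, with constant ligand or without it. Apparent KD is the median over each design's normalised cluster binding-curve fits.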

[2] = system: MS2 coat protein; assay: apparent KD of MS2 coat protein, switch OFF state (with FMN for OFF switches, without FMN for ON switches); designed switch direction (-1 OFF switch, 1 ON switch): 1; higher = weaker reporter binding; conditions: FMN input: 0 or 200 uM; Eterna round: R93 (includes R88 designs)
Procedure, shortened: as §1

Sequence | apparent KD of MS2 coat protein [1] | apparent KD of MS2 coat protein [2]
UAGCAGUGCGGGUAGGAUAUGUAGGGUGGUACAUGAGGAUCACCCAUGUAUCCACCCUUCGACCGGCAGAAGGGCCUGUCACUGC [Edor] | 17.9 nM | 16.9 nM
CGGAAGGAGAGAGAGGAUAUCCAAAGGAAAACAUGAGGAUCACCCAUGUAGAAGGUAGGAAAUUGGGAGAAGGCUCAAGAGACAG [salish99-ss2-125] | 25.3 nM | 55.9 nM
AAAAAAAAAAGUGAGGAUAUGGGAAAAUUAACAUGAGGAUCACCCAUGUGAUAAAAAAAAAAAAACCAGAAGGUACAAAAAAAAA [Original 73%, More Wateronthemoon, 1] | 16 nM | 42.3 nM
AAAAAACAUGAGGAUCACCCAUGUCUUCGGACGUGAGGAUAUGUACAGACUUCGGUCUGUACAGAAGGCAUGUAAA [SS1 - 1052] | 286 nM | 186 nM
GAUAAACAUGAGGAUCACCCAUGUAGAUAUAUGGGAGGAUAUACAAAGACGAUAGUCAAAGUAGAAGGCCUAAUAG [77%, Mat - Mod of Eli - With 4 more U's] | 29.6 nM | 84 nM
UCGUCCUCGUGCUAGGAUAUCCAUCGUAAAACAUGAGGAUCACCCAUGUAGAAAUGCGCCUACGAGGAGAAGGAGCGAUGUGGAU [Velemageer] | 14.9 nM | 19 nM
AAAAAACAUGAGGAUCACCCAUGUAGAAAUAUGGGAGGAUAUGGAAACACGAAAGUGAAACCAGAAGGCUCAAAAG [77%, Mat - Mod of Eli, 8] | 26.6 nM | 69.5 nM
CUUUCCGCGCUAUAGGAUAUGAAUGAACCUACAUGAGGAUCACCCAUGUCGAACUCGGUCCAAAAUCAGAAGGAUGGCGAGGCGC [Oratis] | 119 nM | 178 nM
AAAAAAAAAAGACAGGAUAUCCAAAAAAAAACAUGAGGAUCACCCAUGUAAAAAAAAAAAAAGUGGGAGAAGGGUCAAAAAAAAAA [Louisiana 4 - Jieux - Same State 2] | 24.9 nM | 38.4 nM
CCCAAUGCAACGAAGGAUAUCCGUCAUGCUACAUGAGGAUCACCCAUGUACUGGCAGCGCAAGGCGGAGAAGGUCGGGUGCUGUG [Leusesbe] | 12 nM | 12.6 nM
AGCAUCACCAGUCAGGAUAUGUAGGCCUUGACAUGAGGAUCACCCAUGUGGACGAAACACCGGCCACAGAAGGGAUUGUAAAUAA [Ries] | 434 nM | 67.4 nM
AAAUAAAUAAAAAAGGAUAUAAAAAAGUACACAUGAGGAUCACCCAUGUGUACACAUGGGUGAUCCUAGAAGGAAAAAUAAAAAA [SS2: 91 No MS2] | 117 nM | 73.3 nM
UGGAAACAUGAGGAUCACCCAUGUAAAAGGUGGUUAGGAUAUGCAAAACGGAAAACGAAAGCAGAAGGGACAAAAA [Inspired by JR and Meechl] | 130 nM | 320 nM
GAGGACAUAGUACAGGAUAUAUGAAUAGUCACAUGAGGAUCACCCAUGUCCAUUUAUAUGGGCACAUAGAAGGGUGGUAGUUAUC [SameState2 Malc#27] | 24.6 nM | 347 nM
GAAAAACAUGAGGAUCACCCAUGUGAAAACUUGGGAGGAUAUACAAAGACGAAAGUCGAAGUAGAAGGCCUAUAAG [Same State 1.4l (Mat - Mod of Eli - )] | 21.1 nM | 85.9 nM
AGGAAACAUGAGGAUCACCCAUGUAAAAAAUGGGUAGGAUAUGCGAAAAGAAAAAGAAAAGCAGAAGGGCCAAGAA [62%, Something completely different, 3] | 46 nM | 444 nM
AAAAAAAAAACGCAGGAUAUCCAAAAAAAAACAUGAGGAUCACCCAUGUAAAAAAAAAAAAAAUGGGAGAAGGGUGAAAAAAAAAA [Louisiana 6 - Jieux - Same State 2] | 49.9 nM | 114 nM
UGGAGACAUGAGGAUCACCCAUGUGAGAAGAGGCGAGGAUAUCGAAAAAAAAAAAAAAAACGAGAAGGCGCGAGAA [salish99-SS1-007] | 28.9 nM | 56.3 nM
AGGAAACAUGAGGAUCACCCAUGUAAGAUAAACACAGGAUAUGCGAAAAGAAACAAAGAAGCAGAAGGGUGGAGAA [75%, Ex5 sub 1, 3] | 19.4 nM | 25.1 nM
AAGAAACAUGAGGAUCACCCAUGUAAGAUUAUGGGAGGAUAUGCGAAAAGAAACAAAGAAGCAGAAGGCCUAAGAA [75%, Ex5 sub 1, 4] | 15.7 nM | 77.3 nM
AAAUAAAUGACUCAGGAUAUAUCAUAGAAAACAUGAGGAUCACCCAUGUAAUAAUAACAUGUUUGGUAGAAGGGAGUCAAUAAAU [LROPPY Same State 2 - v04_deltaG=1.25] | 31.1 nM | 18.6 nM

Sequence | apparent KD of MS2 coat protein [1] | apparent KD of MS2 coat protein [2]
AUAAAACAUGAGGAUCACCCAUGUAGAAAUAUGGGAGGAUAUACGAGGACGAAAGUCAAAGUAGAAGGCCUAAAAG [Mat - Same State 1 - Meechl mod - D120] | 22.7 nM | 40.6 nM
CCCUCGCAAUAACAGGAUAUACAUGGUCAAACAUGAGGAUCACCCAUGUGAGGAAGUUGGCGGUCGUAGAAGGGUUGUUGGCUCA [Beisvesoqu] | 42.8 nM | 166 nM
AAAUAAAUGACUAAGGAUAUAUCAUAAGAAACAUGAGGAUCACCCAUGUAAUAAUAAAAAGGGUGAUAGAAGGUAGUCAACAAAC [74%, More Paria 4] | 19.8 nM | 114 nM
AUAAAACAUGAGGAUCACCCAUGUAGAAAUAUGGGAGGAUAUACUAGAUCGAAAGAUCUAGUAGAAGGCCUUUAUA [JL Mod of Eli 6] | 19.9 nM | 45.9 nM
AAAUAAAUGACUCAGGAUAUAUCAGAGAAAACAUGAGGAUCACCCAUGUAAUAAUAACAUGUGUGGUAGAAGGGAGUCAAUAAAU [LROPPY Same State 2 - v03_deltaG=2.1] | 13.5 nM | 49.3 nM
AAAUAAAUGACUAAGGAUAUCUCAGAGAAAACAUGAGGAUCACCCAUGUAAUAAUAACAUGUGUGAGAGAAGGUAGUCAACAAAC [Same State 2.4 (Pariah 4 -changed stack on 9nt hairpin)] | 16.1 nM | 70.1 nM
AACUAACAUGAGGAUCACCCAUGUAAUCAAACAUGAGGAUAUAUAACACAUCAUCAACAGAUAGAAGGCAUAAAUA [JR_SS001_Sub1203] | 80.4 nM | 62.7 nM
AGAAUAAAAAGACAGGAUAUCCAAAAAAAAACAUGAGGAUCACCCAUGUAAAAAAAAUAAAAAUGGGAGAAGGGUCAAAAUAAGA [Mat - Same State 2 - JL mod - D64] | 19.9 nM | 35.9 nM
AAAAAAAAAAGUCAGGAUAUACAAAUUUUUACAUGAGGAUCACCCAUGUUAAGGAAAAAAAAAAAGUAGAAGGGACAAAAAAAAAA [Same State 2 - Omei 3] | 15.3 nM | 21.4 nM
AAACCACAUGAGGAUCACCCAUGUAAAAAUAUGGGAGGAUAUCGGAAUAAAAUAAAGAAACGAGAAGGCCUAAAAG [59%, Flamingo, 4] | 69.3 nM | 292 nM
AAAAGACAUGAGGAUCACCCAUGUCCUCGGACAUGAGGAUAUGUACAGACUUCGGUCUGUACAGAAGGCAUAAAAA [SS1 - 1063] | 71.2 nM | 349 nM
AUAAAACAUGAGGAUCACCCAUGUCAAGGCUAUCAAGGAUAUAGGAAGCGUAGCGGUUGACUAGAAGGUGAGAAAU [Ragexequ] | 66.9 nM | 52.4 nM
AAAAACGUGGCGUAGGAUAUACUAAUAUUCACAUGAGGAUCACCCAUGUUCAUAUAUAUGAACGAGUAGAAGGACGACGAAAAAA [Mat - Same state - Malcolm Mod - D106] | 29.5 nM | 107 nM
AUACGUACGUAUGAGGAUAUCCAUAAUAAGACAUGAGGAUCACCCAUGUAAACAAAACAAUAAUGGGAGAAGGCAUACGUACGAU [SS 2 M 50] | 47.7 nM | 54.8 nM
AAAAAAGAUCUAGAGGAUAUCCGAGUGGUAACAUGAGGAUCACCCAUGUGAAGAAAGGAACAUGAGGAGAAGGCUAGAUCAAAAA [JL Nando Mod 1] | 7.87 nM | 10.7 nM
GAGAGGAAGAGAGAGGAUAUCCAAAGGAAAACAUGAGGAUCACCCAUGUAAAAGGUAGGAAAUUGGGAGAAGGCUCAAGAGAGAG [salish99-ss2-063] | 29.1 nM | 29.6 nM
AAAACACAUGAGGAUCACCCAUGUAGAAAUACGGGAGGAUAUGCGAAAACGAAAGACAAAGCAGAAGGCCUAAAAG [saturn 6] | 12.3 nM | 35 nM
GGGAGACAUGAGGAUCACCCAUGUGAGAAGAGGCGAGGAUAUCGAAAGAAAGAAGAGAAACGAGAAGGCGCGAGCC [salish99-SS1-064] | 94.2 nM | 66.4 nM
GAAAAACAUGAGGAUCACCCAUGUGUAAAUAUGGGAGGAUAUACAAAGACGUAAGUCAAAGUAGAAGGCCUAAAAG [Mat - Same State 1 - Eli mod - D12] | 29.9 nM | 95.1 nM
AAAAAACAUGAGGAUCACCCAUGUAAAAAAACAUGAGGAUAUAUAAAAAAAAAAAAAAAGAUAGAAGGCAUAAAUA [JR_SS001_Sub1201] | 128 nM | 77.4 nM
AAACUGGAGGACAAGGAUAUGUGCUCUACGACAUGAGGAUCACCCAUGUGAGACGUAGUAGUGAAACAGAAGGUGUCCUAUUGUA [Tiarri] | 11 nM | 20.4 nM
